Test results taken from patent publication US8524947B2, “Acylsulfonamides and processes for producing the same” (University of South Florida, priority 2008, dated 2013).

Tests used:
Bcl-XL [1] = target: T1, Bcl-XL (Homo sapiens, UniProt Q07817); test: Suppression of Bcl-XL-templated incubations of (SZ4) and (TA2) by BH3 peptides (LC/MS-SIM); type: biochemical; conditions: for amount of acylsulfonamide (SZ4TA2) in Bcl-XL incubations containing the peptide: compared to the Bcl-XL incubations containing wild type Bak BH3 and Bim peptides
T1 sequence (Q07817 whole entry): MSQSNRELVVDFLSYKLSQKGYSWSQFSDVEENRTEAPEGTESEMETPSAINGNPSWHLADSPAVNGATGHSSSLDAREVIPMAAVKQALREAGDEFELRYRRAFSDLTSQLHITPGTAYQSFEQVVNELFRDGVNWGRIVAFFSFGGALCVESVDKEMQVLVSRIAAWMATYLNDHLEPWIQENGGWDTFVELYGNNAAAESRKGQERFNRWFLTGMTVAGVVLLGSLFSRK
Experimental: In a 96-well plate, one thio acid building block (1 μL of a 2 mM solution in methanol) and one sulfonyl azide building block (1 μL of a 2 mM solution in methanol) were added to a solution of Bcl-XL (98 μL of a 2 μM Bcl-XL solution in buffer (58 mM Na2HPO4, 17 mM NaH2PO4, 68 mM NaCl, 1 mM NaN3, pH=7.40)). The 96-well plate was sealed and incubated at 38.5° C. for six hours. The incubation samples were then subjected to liquid chromatography combined with mass spectrometry analysis in the selected ion mode (LC-MS-SIM, Zorbax SB-C18 preceded by a Phenomenex C18 guard column, electrospray ionization and mass spectroscopic detection in the positive selected ion mode, tuned to the expected molecular mass of the product). The TGS hit compound was identified by the mass and retention time. As a control, identical building block combinations were incubated in buffer without Bcl-XL and subjected to LC/MS-SIM analysis. Comparison of the LC-MS-SIM chromatograms of these control incubations with the chromatograms of the Bcl-XL containing incubations allows to determine whether the protein is templating the corresponding amidation reactions or not. For the Bcl-XL containing incubation sample showing acylsulfonamide formation, a second control has been undertaken. Synthetically prepared acylsulfonamide was subjected to LC/MS-SIM analysis and the retention time was compared with the retention time identified in the Bcl-XL containing incubation.
Additional control experiments have been performed to test whether the Bcl-XL-templated reaction occurs at the BH3 binding site on Bcl-XL. Reactive building blocks (SZ4) and (TA2) were incubated with Bcl-XL and pro-apoptotic Bak BH3 peptide. Bak is one of the natural Bcl-XL ligands and theoretically competes with the reactive building blocks for binding on Bcl-XL during the incubations. The influence of Bak BH3 peptide on the Bcl-XL-templated reaction was studied at different ratios of Bak BH3 peptide and Bcl-XL (FIG. 10).
Additional control experiments have been performed with Bim, mutant Bim, and mutant Bak. […]

Bcl-XL [2] = target: T1, Bcl-XL; conditions: compared to wildtype Bak BH3 and Bim peptides; cited from earlier work

Substance	amount of acylsulfonamide (SZ4TA2) in Bcl-XL incubations containing the peptide (Bcl-XL [1])	affinity towards Bcl-XL (Bcl-XL [2])	Bcl-XL-templated reaction (formation of SZ4TA2) (Bcl-XL [1]; 20 μM Bak BH3 peptide, (SZ4) and (TA2) with Bcl-XL, compared to the Bcl-XL incubation without Bak BH3)
mutant Bak: mutant Bak BH3 peptide; sequence CMGQVGRQAAIIGADINRRYDS	increased amount	lower affinity	–
Bak BH3 peptide: pro-apoptotic Bak BH3 peptide, a natural Bcl-XL ligand; sequence CMGQVGRQLAIIGDDINRRYDS	–	–	significantly suppressed
mutant Bim: mutant Bim BH3 peptide; sequence CEIWIAQEARRIGAEFNAYYAR	increased amount	lower affinity	–
